Publication PMC9482650, “Quantitative fragmentomics allow affinity mapping of interactomes” (Nature Communications, 2022)
Substitutions are numbered along the chain they refer to.

T1: APBA3_1, O96018
T1 sequence (O96018 389-490, limits assumed, looked up): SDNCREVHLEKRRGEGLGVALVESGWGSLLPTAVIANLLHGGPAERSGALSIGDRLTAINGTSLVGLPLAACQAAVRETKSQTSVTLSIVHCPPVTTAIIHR

T2: DVL3, Q92997
T2 sequence (Q92997 244-331, limits assumed, looked up): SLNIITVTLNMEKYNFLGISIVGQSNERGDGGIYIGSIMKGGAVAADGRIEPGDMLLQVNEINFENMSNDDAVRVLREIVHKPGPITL

T3: FRMPD1, Q5SYB0
T3 sequence (Q5SYB0 52-145, limits assumed, looked up): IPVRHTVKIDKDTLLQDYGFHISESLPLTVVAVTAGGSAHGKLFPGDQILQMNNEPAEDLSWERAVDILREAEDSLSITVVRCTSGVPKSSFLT

T4: GRIP1_4, Q9Y3R0
T4 sequence (Q9Y3R0 467-571, limits assumed, looked up): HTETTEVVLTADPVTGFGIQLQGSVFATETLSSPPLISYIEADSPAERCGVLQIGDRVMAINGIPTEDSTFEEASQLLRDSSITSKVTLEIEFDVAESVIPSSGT

T5: HTRA4, P83105
T5 sequence (P83105 378-476, limits assumed, looked up): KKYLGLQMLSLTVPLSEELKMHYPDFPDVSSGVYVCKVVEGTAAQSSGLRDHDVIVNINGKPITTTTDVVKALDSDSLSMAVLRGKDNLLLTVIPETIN

T6: LIN7B, Q9HAP6
T6 sequence (Q9HAP6 88-185, limits assumed, looked up): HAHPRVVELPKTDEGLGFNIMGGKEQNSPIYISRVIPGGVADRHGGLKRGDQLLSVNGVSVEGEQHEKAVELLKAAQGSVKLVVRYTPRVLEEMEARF

T7: LIN7C, Q9NUP9
T7 sequence (Q9NUP9 88-185, limits assumed, looked up): T6 sequence (Q9HAP6 88-185, limits assumed, looked up) with A2S, D13E, V35I, V40I, Q65H, S79K, R89K, A96S

T8: LNX2_3, Q8N448
T8 sequence (Q8N448 463-564, limits assumed, looked up): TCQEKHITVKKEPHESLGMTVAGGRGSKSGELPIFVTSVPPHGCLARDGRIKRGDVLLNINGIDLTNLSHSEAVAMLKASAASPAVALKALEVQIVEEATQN

T9: MPP2, Q14168
T9 sequence (Q14168 180-250, limits assumed, looked up): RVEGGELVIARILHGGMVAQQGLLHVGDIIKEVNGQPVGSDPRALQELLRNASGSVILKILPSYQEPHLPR

T10: PDZD2_2, O15018
T10 sequence (O15018 329-429, limits assumed, looked up): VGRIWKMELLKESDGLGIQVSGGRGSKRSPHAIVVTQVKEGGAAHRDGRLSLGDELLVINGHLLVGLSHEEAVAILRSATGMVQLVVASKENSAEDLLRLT

T11: PDZD7_3, Q9H5P4
T11 sequence (Q9H5P4 857-944, limits assumed, looked up): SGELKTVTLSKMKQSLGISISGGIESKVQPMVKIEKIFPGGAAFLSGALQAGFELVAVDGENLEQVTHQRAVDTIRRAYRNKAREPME

B1: PLEKHA2, Q9HB19 (peptide)
chain: DDENIRTSDV
B2: GRIN2A, Q12879 (peptide)
chain: KKMPSIESDV
B3: CLDN14, O95500 (peptide)
chain: HSGYRLNDYV

Biological target: T1, APBA3_1, O96018
Assay: holdup assay
Set-up: key: below the threshold = too weak to quantify, mostly under pKd 3.1 to 4
Conditions: plain residues with an end cap or a label only (N-terminal biotin on a linker: ado-ado)

| Binder | pKd |
| --- | --- |
| B1 | below the threshold |
| B2 | below the threshold |
| B3 | below the threshold |

Biological target: ARHGEF12, Q9NZN5-2
Assay: holdup assay
Set-up: key: below the threshold = too weak to quantify, mostly under pKd 3.1 to 4
Conditions: plain residues with an end cap or a label only (N-terminal biotin on a linker: ado-ado)

Sequence of ARHGEF12, Q9NZN5-2 (Q9NZN5 other isoform, or with tags, fused parts or gaps): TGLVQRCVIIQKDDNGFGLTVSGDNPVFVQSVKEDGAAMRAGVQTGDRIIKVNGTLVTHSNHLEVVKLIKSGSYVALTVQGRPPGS

| Binder | pKd |
| --- | --- |
| B1 | 4.25 |
| B2 | 3.69 |
| B3 | below the threshold |

Biological target: DLG4_1, P78352
Assay: holdup assay
Set-up: key: below the threshold = too weak to quantify, mostly under pKd 3.1 to 4
Conditions: plain residues with an end cap or a label only (N-terminal biotin on a linker: ado-ado)

Sequence of DLG4_1, P78352 (P78352 62-152): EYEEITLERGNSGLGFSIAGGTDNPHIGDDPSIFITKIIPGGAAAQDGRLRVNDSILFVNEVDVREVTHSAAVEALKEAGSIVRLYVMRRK

| Binder | pKd |
| --- | --- |
| B1 | 3.69 |
| B2 | 4.71 |
| B3 | below the threshold |

Biological target: T2, DVL3, Q92997
Assay: holdup assay
Set-up: key: below the threshold = too weak to quantify, mostly under pKd 3.1 to 4
Conditions: plain residues with an end cap or a label only (N-terminal biotin on a linker: ado-ado)

| Binder | pKd |
| --- | --- |
| B1 | below the threshold |
| B2 | below the threshold |
| B3 | 3.66 |

Biological target: T3, FRMPD1, Q5SYB0
Assay: holdup assay
Set-up: key: below the threshold = too weak to quantify, mostly under pKd 3.1 to 4
Conditions: plain residues with an end cap or a label only (N-terminal biotin on a linker: ado-ado)

| Binder | pKd |
| --- | --- |
| B1 | below the threshold |
| B2 | below the threshold |
| B3 | below the threshold |

Biological target: FRMPD2_1, Q68DX3
Assay: holdup assay
Set-up: key: below the threshold = too weak to quantify, mostly under pKd 3.1 to 4
Conditions: plain residues with an end cap or a label only (N-terminal biotin on a linker: ado-ado)

Sequence of FRMPD2_1, Q68DX3 (Q68DX3 770-861): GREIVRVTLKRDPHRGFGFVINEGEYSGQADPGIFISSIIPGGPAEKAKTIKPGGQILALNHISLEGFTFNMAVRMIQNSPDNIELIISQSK

| Binder | pKd |
| --- | --- |
| B1 | below the threshold |
| B2 | below the threshold |
| B3 | below the threshold |

Biological target: GRID2IP_1, A4D2P6
Assay: holdup assay
Set-up: key: below the threshold = too weak to quantify, mostly under pKd 3.1 to 4
Conditions: plain residues with an end cap or a label only (N-terminal biotin on a linker: ado-ado)

Sequence of GRID2IP_1, A4D2P6 (A4D2P6 1-87): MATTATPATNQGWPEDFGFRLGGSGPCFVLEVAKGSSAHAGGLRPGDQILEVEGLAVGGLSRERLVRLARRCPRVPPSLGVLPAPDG

| Binder | pKd |
| --- | --- |
| B1 | below the threshold |
| B2 | below the threshold |
| B3 | below the threshold |

Biological target: T4, GRIP1_4, Q9Y3R0
Assay: holdup assay
Set-up: key: below the threshold = too weak to quantify, mostly under pKd 3.1 to 4
Conditions: plain residues with an end cap or a label only (N-terminal biotin on a linker: ado-ado)

| Binder | pKd |
| --- | --- |
| B1 | below the threshold |
| B2 | below the threshold |
| B3 | below the threshold |

Biological target: T5, HTRA4, P83105
Assay: holdup assay
Set-up: key: below the threshold = too weak to quantify, mostly under pKd 3.1 to 4
Conditions: plain residues with an end cap or a label only (N-terminal biotin on a linker: ado-ado)

| Binder | pKd |
| --- | --- |
| B1 | below the threshold |
| B2 | below the threshold |
| B3 | 3.95 |

Biological target: IL16_4, Q14005
Assay: holdup assay
Set-up: key: below the threshold = too weak to quantify, mostly under pKd 3.1 to 4
Conditions: plain residues with an end cap or a label only (N-terminal biotin on a linker: ado-ado)

Sequence of IL16_4, Q14005 (Q14005 1229-1329): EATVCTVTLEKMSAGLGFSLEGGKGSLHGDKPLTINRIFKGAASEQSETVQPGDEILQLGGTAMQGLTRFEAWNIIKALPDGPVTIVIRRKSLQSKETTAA

| Binder | pKd |
| --- | --- |
| B1 | below the threshold |
| B2 | below the threshold |
| B3 | below the threshold |

Biological target: Inadl_1, Q8NI35
Assay: holdup assay
Set-up: key: below the threshold = too weak to quantify, mostly under pKd 3.1 to 4
Conditions: plain residues with an end cap or a label only (N-terminal biotin on a linker: ado-ado)

Sequence of Inadl_1, Q8NI35 (Q8NI35 113-229): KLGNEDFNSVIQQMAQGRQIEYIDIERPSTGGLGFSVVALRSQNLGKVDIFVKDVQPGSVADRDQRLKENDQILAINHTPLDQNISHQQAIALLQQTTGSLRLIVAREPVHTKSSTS

| Binder | pKd |
| --- | --- |
| B1 | below the threshold |
| B2 | below the threshold |
| B3 | below the threshold |

Biological target: Inadl_3, Q8NI35
Assay: holdup assay
Set-up: key: below the threshold = too weak to quantify, mostly under pKd 3.1 to 4
Conditions: plain residues with an end cap or a label only (N-terminal biotin on a linker: ado-ado)

Sequence of Inadl_3, Q8NI35 (Q8NI35 359-469): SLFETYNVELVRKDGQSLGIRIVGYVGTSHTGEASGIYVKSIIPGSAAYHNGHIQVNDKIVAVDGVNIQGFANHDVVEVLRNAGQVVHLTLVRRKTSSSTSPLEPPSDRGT

| Binder | pKd |
| --- | --- |
| B1 | below the threshold |
| B2 | below the threshold |
| B3 | below the threshold |

Biological target: Inadl_6, Q8NI35
Assay: holdup assay
Set-up: key: below the threshold = too weak to quantify, mostly under pKd 3.1 to 4
Conditions: plain residues with an end cap or a label only (N-terminal biotin on a linker: ado-ado)

Sequence of Inadl_6, Q8NI35 (Q8NI35 1058-1167): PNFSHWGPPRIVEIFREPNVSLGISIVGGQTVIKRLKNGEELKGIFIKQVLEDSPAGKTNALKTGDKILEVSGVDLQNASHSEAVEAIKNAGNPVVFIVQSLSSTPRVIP

| Binder | pKd |
| --- | --- |
| B1 | below the threshold |
| B2 | below the threshold |
| B3 | below the threshold |

Biological target: Inadl_8, Q8NI35
Assay: holdup assay
Set-up: key: below the threshold = too weak to quantify, mostly under pKd 3.1 to 4
Conditions: plain residues with an end cap or a label only (N-terminal biotin on a linker: ado-ado)

Sequence of Inadl_8, Q8NI35 (Q8NI35 1425-1530): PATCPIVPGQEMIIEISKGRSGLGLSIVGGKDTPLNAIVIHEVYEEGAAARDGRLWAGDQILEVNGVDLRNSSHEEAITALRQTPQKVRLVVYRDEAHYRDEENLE

| Binder | pKd |
| --- | --- |
| B1 | 4.94 |
| B2 | 3.76 |
| B3 | 3.87 |

Biological target: Inadl_9, Q8NI35
Assay: holdup assay
Set-up: key: below the threshold = too weak to quantify, mostly under pKd 3.1 to 4
Conditions: plain residues with an end cap or a label only (N-terminal biotin on a linker: ado-ado)

Sequence of Inadl_9, Q8NI35 (Q8NI35 1530-1615): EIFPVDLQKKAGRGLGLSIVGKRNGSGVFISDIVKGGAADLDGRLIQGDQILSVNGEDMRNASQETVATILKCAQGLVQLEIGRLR

| Binder | pKd |
| --- | --- |
| B1 | below the threshold |
| B2 | below the threshold |
| B3 | 3.58 |

Biological target: T6, LIN7B, Q9HAP6
Assay: holdup assay
Set-up: key: below the threshold = too weak to quantify, mostly under pKd 3.1 to 4
Conditions: plain residues with an end cap or a label only (N-terminal biotin on a linker: ado-ado)

| Binder | pKd |
| --- | --- |
| B1 | below the threshold |
| B2 | 3.71 |
| B3 | below the threshold |

Biological target: T7, LIN7C, Q9NUP9
Assay: holdup assay
Set-up: key: below the threshold = too weak to quantify, mostly under pKd 3.1 to 4
Conditions: plain residues with an end cap or a label only (N-terminal biotin on a linker: ado-ado)

| Binder | pKd |
| --- | --- |
| B1 | below the threshold |
| B2 | below the threshold |
| B3 | below the threshold |

Biological target: LNX1_3, Q8TBB1
Assay: holdup assay
Set-up: key: below the threshold = too weak to quantify, mostly under pKd 3.1 to 4
Conditions: plain residues with an end cap or a label only (N-terminal biotin on a linker: ado-ado)

Sequence of LNX1_3, Q8TBB1 (Q8TBB1 500-596): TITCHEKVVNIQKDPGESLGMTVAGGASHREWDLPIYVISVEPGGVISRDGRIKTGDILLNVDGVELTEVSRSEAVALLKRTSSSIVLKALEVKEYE

| Binder | pKd |
| --- | --- |
| B1 | below the threshold |
| B2 | below the threshold |
| B3 | below the threshold |

Biological target: T8, LNX2_3, Q8N448
Assay: holdup assay
Set-up: key: below the threshold = too weak to quantify, mostly under pKd 3.1 to 4
Conditions: plain residues with an end cap or a label only (N-terminal biotin on a linker: ado-ado)

| Binder | pKd |
| --- | --- |
| B1 | below the threshold |
| B2 | below the threshold |
| B3 | below the threshold |

Biological target: MAGI2_5, Q86UL8
Assay: holdup assay
Set-up: key: below the threshold = too weak to quantify, mostly under pKd 3.1 to 4
Conditions: plain residues with an end cap or a label only (N-terminal biotin on a linker: ado-ado)

Sequence of MAGI2_5, Q86UL8 (Q86UL8 915-1017): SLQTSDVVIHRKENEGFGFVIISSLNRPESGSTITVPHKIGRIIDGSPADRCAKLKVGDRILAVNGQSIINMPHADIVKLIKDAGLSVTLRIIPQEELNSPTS

| Binder | pKd |
| --- | --- |
| B1 | below the threshold |
| B2 | below the threshold |
| B3 | below the threshold |

Biological target: MAST2, Q6P0Q8
Assay: holdup assay
Set-up: key: below the threshold = too weak to quantify, mostly under pKd 3.1 to 4
Conditions: plain residues with an end cap or a label only (N-terminal biotin on a linker: ado-ado)

Sequence of MAST2, Q6P0Q8 (Q6P0Q8 1099-1202): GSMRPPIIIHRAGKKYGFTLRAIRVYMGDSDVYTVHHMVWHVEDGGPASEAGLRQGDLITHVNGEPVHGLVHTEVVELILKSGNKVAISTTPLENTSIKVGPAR

| Binder | pKd |
| --- | --- |
| B1 | 4.9 |
| B2 | 4.95 |
| B3 | 3.89 |

Biological target: T9, MPP2, Q14168
Assay: holdup assay
Set-up: key: below the threshold = too weak to quantify, mostly under pKd 3.1 to 4
Conditions: plain residues with an end cap or a label only (N-terminal biotin on a linker: ado-ado)

| Binder | pKd |
| --- | --- |
| B1 | below the threshold |
| B2 | below the threshold |
| B3 | below the threshold |

Biological target: NHERF4_1, Q86UT5-2
Assay: holdup assay
Set-up: key: below the threshold = too weak to quantify, mostly under pKd 3.1 to 4
Conditions: plain residues with an end cap or a label only (N-terminal biotin on a linker: ado-ado)

Sequence of NHERF4_1, Q86UT5-2 (Q86UT5 other isoform, or with tags, fused parts or gaps): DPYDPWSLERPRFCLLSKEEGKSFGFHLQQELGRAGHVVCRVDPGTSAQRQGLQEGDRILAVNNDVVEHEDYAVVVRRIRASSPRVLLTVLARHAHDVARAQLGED

| Binder | pKd |
| --- | --- |
| B1 | below the threshold |
| B2 | below the threshold |
| B3 | 3.57 |

Biological target: NHERF4_4, Q86UT5
Assay: holdup assay
Set-up: key: below the threshold = too weak to quantify, mostly under pKd 3.1 to 4
Conditions: plain residues with an end cap or a label only (N-terminal biotin on a linker: ado-ado)

Sequence of NHERF4_4, Q86UT5 (Q86UT5 464-550): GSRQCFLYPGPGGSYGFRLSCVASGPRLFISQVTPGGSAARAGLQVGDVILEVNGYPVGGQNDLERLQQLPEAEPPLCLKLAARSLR

| Binder | pKd |
| --- | --- |
| B1 | below the threshold |
| B2 | below the threshold |
| B3 | 3.94 |

Biological target: T10, PDZD2_2, O15018
Assay: holdup assay
Set-up: key: below the threshold = too weak to quantify, mostly under pKd 3.1 to 4
Conditions: plain residues with an end cap or a label only (N-terminal biotin on a linker: ado-ado)

| Binder | pKd |
| --- | --- |
| B1 | 5.74 |
| B2 | 4.91 |
| B3 | 4.79 |

Biological target: T11, PDZD7_3, Q9H5P4
Assay: holdup assay
Set-up: key: below the threshold = too weak to quantify, mostly under pKd 3.1 to 4
Conditions: plain residues with an end cap or a label only (N-terminal biotin on a linker: ado-ado)

| Binder | pKd |
| --- | --- |
| B1 | 4.73 |
| B2 | below the threshold |
| B3 | 4.19 |
